Data published in patent US11542537B2, “High-purity steviol glycosides” (PureCircle Sdn Bhd, priority 2012, dated 2023).

Key:
Format in all cases: biochemical
[1] = Conversion of Rebaudioside E to Rebaudioside D with UGT76G1 lysate; conditions: 500 μL UGT76G1 thawed lysate, 0.5 mM Rebaudioside E, 30° C., pH 7.5
Method: The total volume of the reaction was 5.0 mL with the following composition: 100 mM potassium phosphate buffer pH 7.5, 3 mM MgCl2, 2.5 mM UDP-glucose, 0.5 mM Rebaudioside E and 500 μL of UGT76G1 thawed lysate (UGT76G1 gene was cloned in pET30a+ vector and expressed in E. coli BL21 (DE3)). The reactions were run at 30° C. on an orbitary shaker at 135 rpm. For sampling 300 μL of the reaction mixture was quenched with 30 μL of 2N H2SO4 and 270 μL of methanol/water (6/4). The samples were immediately centrifuged and kept at 10° C. before analysis by HPLC (CAD detection).

[2] = UGT76G1 activity test, Rebaudioside D to Rebaudioside M (HPLC); conditions: in-vitro produced UGT76G1, 0.5 mM Rebaudioside D, after 120 h
Method: The total volume of the reaction was 2 mL with the following composition: 50 mM sodium phosphate buffer pH 7.2, 3 mM MgCl2, 3.8 mM UDP-glucose, 0.5 mM Rebaudioside D and 180 μL of in-vitro produced UGT76G1. The reactions were run at 30° C. on an orbitary shaker at 135 rpm. For each sample, 400 μL of reaction mixture was quenched with 40 μL of 2N H2SO4 and 360 μL of 60% MeOH. After centrifugation, the supernatant was analyzed by HPLC (CAD).
(§1) Activity tests were performed on a 5 mL scale with 500 μL of thawed lysate for the transformation of Stevioside to Rebaudioside A and Rebaudioside D to Rebaudioside M using 0.5 mM of substrate, 2.5 mM of UDP-Glucose and 3 mM MgCl2 in 50 mM Sodium Phosphate buffer at pH 7.2. Samples were taken and analyzed by HPLC.
5 mL of the lysate of Example 12 was used to transform Rebaudioside D to Rebaudioside M on a 50 mL scale. The reaction medium consisted of 50 mM Sodium Phosphate buffer pH 7.2, 3 mM of MgCl2, 2.5 mM of UDP-Glucose and 0.5 mM of Rebaudioside D. After allowing the reaction to be shaken at 30° C. for 90 h. 50 mL of ethanol was added and the resulting mixture was allowed to stir at −20° C. for 1 h. After centrifugation at 5000 g for 10 min. the supernatant was purified via ultrafiltration (Vivaflow MWCO 30000). […]

[3] = UGT76G1 lysate activity test, Stevioside to Rebaudioside A (HPLC); conditions: in-vivo produced UGT76G1 thawed lysate, 0.5 mM Stevioside, 30° C.
Method: The total volume of the reaction was 5.0 mL with the following composition: 50 mM sodium phosphate buffer pH 7.2, 3 mM MgCl2, 2.5 mM UDP-glucose, 0.5 mM Stevioside and 500 μL of UGT76G1 thawed lysate. The reactions were run at 30° C. on an orbitary shaker at 135 rpm. For each sample, 460 μL of the reaction mixture was quenched with 40 μL of 2N H2SO4 and 420 μL of methanol/water (6/4). The samples were immediately centrifuged and kept at 10° C. before analysis by HPLC (CAD).
as §1

[4] = Directed evolution of UGT76G1 round 1, variant lysates, Rebaudioside D to Rebaudioside M conversion and initial rate
Method: Lysis was performed by addition of Bugbuster® Master mix (Novagen®) to the thawed cells and the lysate was recovered by centrifugation. Activity tests were performed with 100 μL of fresh lysate that was added to a solution of Rebaudioside D (final concentration 0.5 mM), MgCl2 (final concentration 3 mM) and UDP-Glucose (final concentration 2.5 mM) in 50 mM phosphate buffer pH 7.2.
The reaction was allowed to run at 30° C. and samples were taken after 2, 4, 7 and 24 h. to determine conversion and initial rate by HPLC (CAD detection) using the analytical method that was described above for the transformation of Rebaudioside D to Rebaudioside M. The results are depicted in the following table.

Row | Molecule | conversion of Rebaudioside E to Rebaudioside D (reaction profile) [1] | conversion of rebaudioside D to rebaudioside M (HPLC) [2] [%] | conversion of stevioside to rebaudioside A (HPLC) [3] | activity ranking in first round of directed evolution, Rebaudioside D to Rebaudioside M [4]
1 | UGT76G1: UDP-glucosyltransferase of Stevia rebaudiana, Genbank AAR06912.1, produced in E. coli or in vitro (protein, UniProt Q6VAB4 1-458, looked up) UDP-glycosyltransferase 76G1: MENKTETTVRRRRRIILFPVPFQGHINPILQLANVLYSKGFSITIFHTNFNKPKTSNYPHFTFRFILDNDPQDERISNLPTHGPLAGMRIPIINEHGADELRRELELLMLASEEDEEVSCLITDALWYFAQSVADSLNLRRLVLMTSSLFNFHAHVSLPQFDELGYLDPDDKTRLEEQASGFPMLKVKDIKSAYSNWQILKEILGKMIKQTKASSGVIWNSFKELEESELETVIREIPAPSFLIPLPKHLTASSSSLLDHDRTVFQWLDQQPPSSVLYVSFGSTSEVDEKDFLEIARGLVDSKQSFLWVVRPGFVKGSTWVEPLPDGFLGERGRIVKWVPQQEVLAHGAIGAFWTHSGWNSTLESVCEGVPMIFSDFGLDQPLNARYMSDVLKVGVYLENGWERGEIANAIRRVMVDEEGEYIRQNARVLKQKADVSLMKGGSSYESLESLVSYISSL | complete conversion | 80 | almost complete conversion | –
2 | UGT76G1var94: UGT76G1 variant containing mutations Q266E_P272A_R334K_G348P_L379G (protein, UniProt Q6VAB4 1-458, looked up, variant Q266E P272A R334K G348P L379G) UDP-glycosyltransferase 76G1: MENKTETTVRRRRRIILFPVPFQGHINPILQLANVLYSKGFSITIFHTNFNKPKTSNYPHFTFRFILDNDPQDERISNLPTHGPLAGMRIPIINEHGADELRRELELLMLASEEDEEVSCLITDALWYFAQSVADSLNLRRLVLMTSSLFNFHAHVSLPQFDELGYLDPDDKTRLEEQASGFPMLKVKDIKSAYSNWQILKEILGKMIKQTKASSGVIWNSFKELEESELETVIREIPAPSFLIPLPKHLTASSSSLLDHDRTVFEWLDQQAPSSVLYVSFGSTSEVDEKDFLEIARGLVDSKQSFLWVVRPGFVKGSTWVEPLPDGFLGERGKIVKWVPQQEVLAHPAIGAFWTHSGWNSTLESVCEGVPMIFSDFGGDQPLNARYMSDVLKVGVYLENGWERGEIANAIRRVMVDEEGEYIRQNARVLKQKADVSLMKGGSSYESLESLVSYISSL | – | – | – | most active clone
